Data reported in publication PMC7498065, “Isolation of antigen-specific, disulphide-rich knob domain peptides from bovine antibodies” (PLoS Biology, 2020).
Like-named read-outs stand apart in the source and are kept apart here.

What was measured:
[1] = target: Complement component C5 (Homo sapiens, UniProt P01031); experiment: Biacore SPR single-cycle kinetics of PGT121 Fab-knob domain fusion proteins binding to C5; details: for Mean kon: C5 amine-coupled on CM5 chip, analyte 1.37 nM-1 µM in HBS-EP; for Mean Stoichiometric ratio at 1 µM: SPR, analyte 1 µM
Chain of Complement component C5 (P01031 19-673 limits assumed): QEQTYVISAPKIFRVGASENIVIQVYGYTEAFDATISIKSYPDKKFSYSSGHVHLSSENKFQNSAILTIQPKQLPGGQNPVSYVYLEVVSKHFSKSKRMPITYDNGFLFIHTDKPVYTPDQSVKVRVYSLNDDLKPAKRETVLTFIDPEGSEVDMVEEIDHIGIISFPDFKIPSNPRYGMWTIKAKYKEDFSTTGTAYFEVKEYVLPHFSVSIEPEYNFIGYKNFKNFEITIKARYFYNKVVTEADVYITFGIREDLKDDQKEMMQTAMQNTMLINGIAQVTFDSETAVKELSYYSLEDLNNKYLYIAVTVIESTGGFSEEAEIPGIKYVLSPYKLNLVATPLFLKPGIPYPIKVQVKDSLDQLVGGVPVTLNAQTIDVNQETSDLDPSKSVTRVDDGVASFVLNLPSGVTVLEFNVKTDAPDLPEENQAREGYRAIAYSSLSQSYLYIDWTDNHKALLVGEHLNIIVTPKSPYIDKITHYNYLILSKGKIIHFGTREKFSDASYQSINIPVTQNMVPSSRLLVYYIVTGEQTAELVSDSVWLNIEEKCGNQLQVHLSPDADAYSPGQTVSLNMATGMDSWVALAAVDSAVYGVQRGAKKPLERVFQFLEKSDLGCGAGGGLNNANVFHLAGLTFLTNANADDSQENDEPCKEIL
Chain of Complement component C5 (P01031 678-1676 limits assumed): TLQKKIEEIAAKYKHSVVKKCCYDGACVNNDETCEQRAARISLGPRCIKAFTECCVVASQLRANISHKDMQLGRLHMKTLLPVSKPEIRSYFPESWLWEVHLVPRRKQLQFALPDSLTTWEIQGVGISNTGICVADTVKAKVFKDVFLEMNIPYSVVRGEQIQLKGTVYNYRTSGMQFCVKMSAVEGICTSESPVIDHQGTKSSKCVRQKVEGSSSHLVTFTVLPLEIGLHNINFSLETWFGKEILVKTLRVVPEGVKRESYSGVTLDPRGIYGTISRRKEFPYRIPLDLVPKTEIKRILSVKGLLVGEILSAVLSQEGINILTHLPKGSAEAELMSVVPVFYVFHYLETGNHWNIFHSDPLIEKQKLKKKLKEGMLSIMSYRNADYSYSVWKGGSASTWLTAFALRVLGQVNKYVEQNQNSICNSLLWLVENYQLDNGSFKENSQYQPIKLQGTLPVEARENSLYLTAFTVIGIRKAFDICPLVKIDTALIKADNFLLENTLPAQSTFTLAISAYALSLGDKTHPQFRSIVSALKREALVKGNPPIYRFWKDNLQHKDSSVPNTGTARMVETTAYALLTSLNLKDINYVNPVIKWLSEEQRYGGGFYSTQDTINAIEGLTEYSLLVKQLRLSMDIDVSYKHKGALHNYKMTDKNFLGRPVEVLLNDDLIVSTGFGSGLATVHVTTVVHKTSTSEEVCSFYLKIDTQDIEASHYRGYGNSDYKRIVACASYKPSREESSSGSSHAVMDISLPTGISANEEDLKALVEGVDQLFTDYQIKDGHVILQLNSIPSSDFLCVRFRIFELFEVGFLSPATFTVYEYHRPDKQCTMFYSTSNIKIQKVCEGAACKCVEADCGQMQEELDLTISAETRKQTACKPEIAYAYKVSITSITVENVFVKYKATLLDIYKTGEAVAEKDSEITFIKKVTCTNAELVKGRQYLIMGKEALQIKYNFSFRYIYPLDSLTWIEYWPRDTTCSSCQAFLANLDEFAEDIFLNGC
Description: For PGT121 fusion proteins, flow cells were activated using a minimal immobilisation protocol: EDC/NHS was mixed at 1:2 ratio (flow rate, 10 μL/min; contact time, 30 s). C5, at 1 μg/mL in pH 4.5 sodium-acetate buffer, was immobilized on flow cell 2 only (flow rate, 10 μL/min; contact time, 420 s). Finally, ethanolamine was applied to both flow cells (flow rate, 10 μL/min; contact time, 420 s).
For knob domain peptides, flow cells were activated using a standard immobilisation protocol: EDC/NHS was mixed at 1:1 ratio (flow rate, 10 μL/min; contact time, 30 s). C5, at 1 μg/mL in pH 4.5 sodium-acetate buffer, was immobilized on flow cell 2 only (flow rate, 10 μL/min; contact time, 420 s). Finally, ethanolamine was applied to both flow cells (flow rate, 10 μL/min; contact time, 420 s). […] For the PGT121-K149 fusion protein and K149 knob domain, the same immobilisation protocols were used but with a 750 ng/mL solution of C5, instead of 1 μg/mL.
One-micromolar stock solutions of the analytes (PGT121 knob domain fusion proteins and free knob domain peptides) were prepared in HBS-EP buffer. A series of six 3-fold dilutions of each stock solution was prepared in the same buffer. The result was 7 solutions for each analyte, at concentrations ranging from 1 μM down to 1.37 nM. A high flow rate of 40 μL/min was used, with a contact time of 230 s and a dissociation time of 1,800 s for knob domain peptides and 10,000 s for PGT121 knob domain fusion proteins. For the PGT121-K149 fusion protein and K149 knob domain, the flow rate was further increased to 100 μL/min. Binding to the reference surface was subtracted, and the data were fitted to a single-site binding model using Biacore evaluation software. Data were inspected for evidence of mass transport limitation using the flow-rate–independent component of the mass transfer constant (tc).

[2] = target: C5 (Homo sapiens, UniProt P01031); experiment: Steady state FRET binding assay, AF647-labelled PGT121 knob fusion proteins binding to C5-Tb (KD app); details: C5-Tb 1 nM
Chain of C5 (P01031 19-673 limits assumed): as the sequence (P01031 19-673 limits assumed) above
Chain of C5 (P01031 678-1676 limits assumed): as the sequence (P01031 678-1676 limits assumed) above

[3] = 2 hour incubation, experiment n2, read-out: KD app
[4] = 2 hour incubation, experiment n3, read-out: KD app
[5] = 2 hour incubation, geomean of n=3, read-out: Geomean KD app
[6] = 24 hour incubation, experiment n2, read-out: KD app
[7] = 24 hour incubation, experiment n3, read-out: KD app
[8] = 24 hour incubation, geomean of n=3, read-out: Geomean KD app

Molecule	Mean kon ([1]; 1:1 model, mean of n=3) [M⁻¹ s⁻¹]	Mean Stoichiometric ratio at 1 µM ([1]; mean of n=3)	Rmax ([1]; occasion n=1) [RU]	Stoichiometric ratio at 1 µM ([1]; occasion n=1)	kon ([1]; occasion n=1) [M⁻¹ s⁻¹]	Kd ([1]; occasion n=1, read-out: KD) [nM]	Rmax ([1]; occasion n=2) [RU]	Stoichiometric ratio at 1 µM ([1]; occasion n=2)	kon ([1]; occasion n=2) [M⁻¹ s⁻¹]	Kd ([1]; occasion n=2, read-out: KD) [nM]	Rmax ([1]; occasion n=3) [RU]	Stoichiometric ratio at 1 µM ([1]; occasion n=3)	kon ([1]; occasion n=3) [M⁻¹ s⁻¹]	Kd ([1]; occasion n=3, read-out: KD) [nM]	Kd [2, 3] [nM]	Kd [2, 4] [nM]	Kd [2, 5] [nM]	Kd [2, 6] [nM]	Kd [2, 7] [nM]	Kd [2, 8] [nM]	further results
PGT121-K136: human Fab PGT121 with the K136 knob domain inserted into CDRH3, flanked by TEV protease sites (antibody) VH: QMQLQESGPGLVKPSETLSLTCSVSGASISDSYWSWIRRSPGKGLEWIGYVHKSGDTNYSPSLKSRVNLSLDTSKNQVSLSLVAATAADSGKYYCARTLHGRRIYGSENLYFQGTCPDNYREVDGCDPYDCCLTTWCTNSYCTRYIENLYFQGSEWFTYFYMDVWGNGTQVTVSS VL: QSVLTQPPDISVAPGETARISCGEKSLGSRAVQWYQHRAGQAPSLIIYNNQDRPSGIPERFSGSPDSPFGTTATLTITSVEAGDEADYYCHIWDSRVPTKWVFGGGTTLTVL	4760	0.8	38.9	0.82	5480	< 1.82	38.4	0.8	3520	< 2.84	40.4	0.9	5280	< 1.89	46.3	115	73	23.4	58.1	39.8	Kd ([1]; SPR single-cycle kinetics, 1:1 model, mean of n=3, read-out: Mean KD): < 2.19 nM; off rate (koff) ([1]; exceeded the limit for koff determination by Biacore): < 1e-05 s⁻¹
PGT121-K149: human Fab PGT121 with the K149 knob domain inserted into CDRH3, flanked by TEV protease sites (antibody) VH: QMQLQESGPGLVKPSETLSLTCSVSGASISDSYWSWIRRSPGKGLEWIGYVHKSGDTNYSPSLKSRVNLSLDTSKNQVSLSLVAATAADSGKYYCARTLHGRRIYGSENLYFQGSCPDGFSYRSWDDFCCPMVGRCLAPRNGSENLYFQGSEWFTYFYMDVWGNGTQVTVSS VL: QSVLTQPPDISVAPGETARISCGEKSLGSRAVQWYQHRAGQAPSLIIYNNQDRPSGIPERFSGSPDSPFGTTATLTITSVEAGDEADYYCHIWDSRVPTKWVFGGGTTLTVL	3750	0.5	13.00	0.5	5270	283	10.00	0.5	3840	425	10.00	0.4	2150	842	57.6	30.1	39.3	90.6	24.9	65.9	Mean koff ([1]; SPR single-cycle kinetics, 1:1 model, mean of n=3, koff capped at 1.00E-05 s^-1): 0.00164 s⁻¹; koff ([1]; occasion n=1): 0.00149 s⁻¹; koff ([1]; occasion n=2): 0.00162 s⁻¹; koff ([1]; occasion n=3): 0.00181 s⁻¹; Kd ([2]; 2 hour incubation, experiment n1, read-out: KD app): 34.9 nM; Kd ([2]; 24 hour incubation, experiment n1, read-out: KD app): 127 nM
